{"source": "paper PMC5750232", "about": "“RAD54 N-terminal domain is a DNA sensor that couples ATP hydrolysis with branch migration of Holliday junctions” (Nature Communications, 2018)", "binders": {"B1": {"name": "non-mobile PX junction (174/175/176/181) (structured_DNA)", "DNA 1": "GACGCTGCCGAATTCTACCAGTGCCTTGCTAGGACATCTTTGCCCACCTGCAGGTTCACCC", "DNA 2": "TGGGTGAACCTGCAGGTGGGCAAAGATGTCCTAGCAATGTAATCGTCAAGCTTTATGCCGTT", "DNA 3": "CAACGGCATAAAGCTTGACGATTACATTGCTAGGACATGCTGTCTAGAGGATCCGACTATCGA", "DNA 4": "TCGATAGTCGGATCCTCTAGACAGC"}}, "key": {"RAD54 1-142 T31E": {"biological_target": "T1, RAD54 1-142 T31E (human, UniProt Q92698 1-142, T31E)", "T1 sequence": "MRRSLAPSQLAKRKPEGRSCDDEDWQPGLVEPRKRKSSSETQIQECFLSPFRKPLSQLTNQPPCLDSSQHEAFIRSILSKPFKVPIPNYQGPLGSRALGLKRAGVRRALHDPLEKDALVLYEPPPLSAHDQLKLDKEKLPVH", "assay": "EMSA; no significant effect of mutation; 5 mM Mg2+, 2 mM ATP; 25 mM Tris-acetate pH 7.5, 5 mM Mg acetate, 100 ug/ml BSA, 2 mM DTT, 2 mM ATP, 10% glycerol, 4 C, 45 min; 30 nM PX junction; 6% native PAGE in 0.25x TBE", "details": "protein: recombinant; tags: Sumo-His, cleaved; partial X junction with one ssDNA arm, 4 strands"}, "RAD54 1-142 52AA53": {"biological_target": "T2, RAD54 1-142 52AA53 (human, UniProt Q92698 1-142, R52A;K53A)", "T2 sequence": "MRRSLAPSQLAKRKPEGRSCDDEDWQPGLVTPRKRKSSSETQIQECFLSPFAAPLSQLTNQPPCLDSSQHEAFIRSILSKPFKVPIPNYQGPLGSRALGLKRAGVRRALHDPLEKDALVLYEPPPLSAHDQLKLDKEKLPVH", "assay": "EMSA; similar to non-mutated 1-142; 5 mM Mg2+, 2 mM ATP; 25 mM Tris-acetate pH 7.5, 5 mM Mg acetate, 100 ug/ml BSA, 2 mM DTT, 2 mM ATP, 10% glycerol, 4 C, 45 min; 30 nM PX junction; 6% native PAGE in 0.25x TBE", "details": "protein: recombinant; tags: Sumo-His, cleaved; partial X junction with one ssDNA arm, 4 strands"}}, "data": [{"binder": "B1", "values": [{"measurement": "binding result", "setting": "RAD54 1-142 T31E", "result": "binds"}, {"measurement": "binding result", "setting": "RAD54 1-142 52AA53", "result": "binds"}]}]}
